Legend:
[1] = target: murine B7-DC (murine) (UniProt Q9WUL5); experiment: flow cytometry competition on murine bone marrow derived DC; preincubation with PD-1.Ig, staining with sHIgM12 as competitor read out
[2] = target: murine B7-DC (murine) (UniProt Q9WUL5); experiment: cell-based or functional assay
[3] = target: murine B7-DC (murine) (UniProt Q9WUL5); experiment: flow cytometry competition on murine DC; preincubation with sHIgM12, staining with PD-1.Ig as competitor read out
[4] = target: murine B7-DC (murine) (UniProt Q9WUL5); experiment: flow cytometry on 293T cells transfected with murine B7-DC

Sequence of murine B7-DC (murine) (Q9WUL5 20-247): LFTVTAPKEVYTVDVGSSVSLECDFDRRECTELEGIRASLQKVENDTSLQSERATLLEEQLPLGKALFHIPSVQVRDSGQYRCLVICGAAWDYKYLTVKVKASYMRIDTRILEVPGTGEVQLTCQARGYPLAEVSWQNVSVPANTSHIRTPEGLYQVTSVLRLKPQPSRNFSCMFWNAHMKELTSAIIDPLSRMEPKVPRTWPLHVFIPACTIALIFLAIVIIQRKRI

Row | Substance | sHIgM12 staining left, percent of the level without PD-1 [1] [%] | GFP+, CD11c+ DC recovered from draining lymph nodes after adoptive transfer [2] [fold] | IL-12 p70 release by DC (ELISA of culture supernatants) [2] [fold] | ability of lymph node DC to induce an antigen-specific T cell response [2] [fold] | percentage of cellular metabolism (Alamar Blue) maintained 24 hours after cytokine withdrawal from DC [2] [%] | PD-1 binding left, percent of the level without sHIgM12 [3] [%] | percent of transfected cells stained [4] [%]
1 | PD-1.Ig fusion protein (Fc fusion) | 50 |  |  |  |  |  | 
2 | sHIgM12 (human monoclonal IgM antibody, pentameric, purified from patient serum) |  | 5 | 3 | 10 | 80 | 20 | 97
